The target in experiment [1] is c-Myc (UniProt P01106). Put plainly: flow cytometry, fixed and permeabilized HCT116 cells, negative control (row shifted one column to the left).
In experiment [2] the target is c-Myc (UniProt P01106). Kind of experiment: flow cytometry, fixed and permeabilized HCT15 cells, negative control. (In general: A flow cytometer gives signals particle by particle.)
Experiment [3] deals with c-Myc (UniProt P01106). Kind of experiment: flow cytometry, fixed and permeabilized JEG3 cells, negative control.

Sequence of UniProt P01106 (P01106 whole entry): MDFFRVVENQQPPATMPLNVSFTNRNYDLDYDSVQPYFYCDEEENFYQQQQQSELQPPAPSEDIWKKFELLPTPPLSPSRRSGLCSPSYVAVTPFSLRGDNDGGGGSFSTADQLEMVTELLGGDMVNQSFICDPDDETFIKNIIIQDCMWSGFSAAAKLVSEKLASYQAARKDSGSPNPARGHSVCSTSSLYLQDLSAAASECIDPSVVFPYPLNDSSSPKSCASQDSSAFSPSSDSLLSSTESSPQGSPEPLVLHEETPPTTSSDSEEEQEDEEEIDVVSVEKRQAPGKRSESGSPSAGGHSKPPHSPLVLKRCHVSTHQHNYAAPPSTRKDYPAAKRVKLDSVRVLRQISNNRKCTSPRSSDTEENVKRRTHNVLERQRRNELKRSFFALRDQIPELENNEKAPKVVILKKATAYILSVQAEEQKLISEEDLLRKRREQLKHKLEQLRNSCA

In the case of “non-immunized rabbit immunoglobulins (antibody)”, the percentage of positive cells above the flow cytometry threshold with c-Myc [1] was 1.5%; with c-Myc [2], 1.6%; with c-Myc [3] it was 1.1%.

For the origin of these results see patent US20050260634A1.
